Assay results: patent US7572594B2, “Screening assays for agonists or antagonists or receptor activator of NF-κB” (Immunex Corporation, priority 2000, dated 2009)

Tests used:
[1] = test system: mouse TRAP promoter (SEQ ID NO:12); assay: mouse TRAP promoter/luciferase reporter in 293/EBNA cells; format: cell-based; details: 24 hours after transfection, 0.4 ng RANK vector, 20 ng RANK-L vector
Excerpt: (§1) This example describes the activation of the TRAP promoter. A 2.6 kb DNA fragment containing the human TRAP promoter was obtained by digesting the plasmid pBL2HT2.2 with the restriction endonuclease ApaI. The cloning of the human TRAP gene 5′ region and the construction of pBL2HT2.2 are fully described in Reddy et al. (Bone 16:587-593 (1995)). A DNA containing the mouse TRAP promoter (SEQ ID NO:12) and a DNA containing the murine MMP-9 promoter (SEQ ID NO:11) also were used for these experiments. DNAs containing the promoters were fused to the luciferase reporter gene. These promoter/reporter constructs were transfected into human 293/EBNA cells along with various combinations of expression vectors that encoded full-length human RANK (SEQ ID NO:2) and human full-length RANK-L proteins (SEQ ID NO:6).
For the mouse TRAP promoter (SEQ ID NO:12), 2×10^5 293/EBNA cells were transfected using DEAE/dextran with 40 ng of a plasmid encoding approximately 2 kb of the mouse TRAP promoter (SEQ ID NO:12) fused to a luciferase reporter, 20 ng of an expression vector encoding RANK-L (SEQ ID NO:6), and 0.4 ng of an expression vector encoding RANK (SEQ ID NO:2). Twenty four hours after transfection, luciferase activity in cell lysates was measured according to manufacturer's instructions (Promega) using a EG&G/Berthold luminometer. […]

human TRAP promoter = assay: human TRAP promoter/luciferase reporter in 293/EBNA cells; format: cell-based; details: 40 ng reporter
Excerpt: as §1
For the human TRAP promoter, the 1.9 kb […] fragment containing the promoter activity isolated from the region upstream of the human TRAP gene (Reddy et al., 1995) was fused to a luciferase reporter and transfected (40 ng) into 293/EBNA cells. The combination of human RANK (SEQ ID NO:2) and human RANK-L (SEQ ID NO:6) increased reporter expression approximately 1.5 fold.

[2] = test system: MMP-9 (SEQ ID NO:11)/luciferase promoter; assay: MMP-9/luciferase reporter in RAW 264.7 cells; format: cell-based, murine; details: 1 μg/ml for 18 hours
Experimental: Additionally, RAW 264.7 cells (6×10^6 cells) were transfected with 15 μg of MMP-9 (SEQ ID NO:11)/luciferase plasmid DNA using DEAE/dextran. Two hours after transfection, cells were divided into two equal amounts and further incubated for 24 hours. Addition of 1 μg/ml of a leucine zipper form of murine RANK-L for 18 hours was sufficient to induce the MMP-9 (SEQ ID NO:11)/luciferase promoter 10-15 fold.

mouse TRAP mRNA = assay: Quantitative RT-PCR of TRAP mRNA in RAW 264.7 cells; format: cell-based; details: RANKL/LZ 200 ng/ml or TNFα 20 ng/ml, various times
mouse MMP-9 mRNA = assay: Quantitative RT-PCR of MMP-9 mRNA in RAW 264.7 cells; format: cell-based; details: RANKL/LZ 200 ng/ml or TNFα 20 ng/ml, various times
Excerpt: MMP-9 mRNA is elevated greater than 350-fold by RANK-L, but is not increased by TNFα. This specificity is helpful in screening for inhibitors of RANK signal transduction.

Molecule | increase of reporter expression (luciferase) [1] | increase of reporter expression (luciferase) (human TRAP promoter) | induction of MMP-9/luciferase promoter [2] | TRAP mRNA elevation (mouse TRAP mRNA) | MMP-9 mRNA elevation (mouse MMP-9 mRNA)
RANK (SEQ ID NO:2) and RANK-L (SEQ ID NO:6): co-transfection of expression vectors encoding full-length human RANK and human full-length RANK-L (protein, listed as Homo sapiens) chain 1: MAPRARRRRPLFALLLLCALLARLQVALQIAPPCTSEKHYEHLGRCCNKCEPGKYMSSKCTTTSDSVCLPCGPDEYLDSWNEEDKCLLHKVCDTGKALVAVVAGNSTTPRRCACTAGYHWSQDCECCRRNTECAPGLGAQHPLQLNKDTVCKPCLAGYFSDAFSSTDKCRPWTNCTFLGKRVEHHGTEKSDAVCSSSLPARKPPNEPHVYLPGLIILLLFASVALVAAIIFGVCYRKKGKALTANLWHWINEACGRLSGDKESSGDSCVSTHTANFGQQGACEGVLLLTLEEKTFPEDMCYPDQGGVCQGTCVGGGPYAQGEDARMLSLVSKTEIEEDSFRQMPTEDEYMDRPSQPTDQLLFLTEPGSKSTPPFSEPLEVGENDSLSQCFTGTQSTVGSESCNCTEPLCRTDWTPMSSENYLQKEVDSGHCPHWAASPSPNWADVCTGCRNPPGEDCEPLVGSPKRGPLPQCAYGMGLPPEEEASRTEARDQPEDGADGRLPSSARAGAGSGSSPGGQSPASGNVTGNSNSTFISSGQVMNFKGDIIVVYVSQTSQEGAAAAAEPMGRPVQEETLARRDSFAGNGPRFPDPCGGPEGLREPEKASRPVQEQGGAKA chain 2: MRRASRDYTKYLRGSEEMGGGPGAPHEGPLHAPPPPAPHQPPAASRSMFVALLGLGLGQVVCSVALFFYFRAQMDPNRISEDGTHCIYRILRLHENADFQDTTLESQDTKLIPDSCRRIKQAFQGAVQKELQHIVGSQHIRAEKAMVDGSWLDLAKRSKLEAQPFAHLTINATDIPSGSHKVSLSSWYHDRGWAKISNMTFSNGKLIVNQDGFYYLYANICFRHHETSGDLATEYLQLMVYVTKTSIKIPSSHTLMKGGSTKYWSGNSEFHFYSINVGGFFKLRSGEEISIEVSNPSLLDPDQDATYFGAFKVRDID | approximately 4 fold | approximately 1.5 fold | – | – | –
leucine zipper form of murine RANK-L: soluble leucine zipper fusion of murine RANK-L (protein, left off: a dimerising Fc or GST) YFRAQMDPNRISEDSTHCFYRILRLHENADLQDSTLESEDTLPDSCRRMKQAFQGAVQKELQHIVGPQRFSGAPAMMEGSWLDVAQRGKPEAQPFAHLTINAASIPSGSHKVTLSSWYHDRGWAKISNMTLSNGKLRVNQDGFYYLYANICFRHHETSGSVPTDYLQLMVYVVKTSIKIPSSHNLMKGGSTKNWSGNSEFHFYSINVGGFFKLRAGEEISIQVSNPSLLDPDQDATYFGAFKVQDID | – | – | 10-15 fold | greater than 250 fold | greater than 350 fold
